B1: Syn-Ang-VEGFR-11: fused protein synergibody SAITAng-2-3 × DTN6VEGFR-2-1, peptide at C-terminal of heavy chain (protein)
heavy (part 1 of 2): DVQLVESGGGLVQPGGSRKLSCAASGFTFSSFGMHWVRQAPEKGLEWVAYISSDSSTIYYADTVKGRFTISRDNPKNTLFLQMTSLRSEDTAMYYCAREGGYDDYYAMDYWGQGTSVTVSS
heavy (part 2 of 2): TGSDDLCYTFPCMHY
light: DIQMTQSPASQSASLGESVTITCLASQTIGTWLAWYQQKPGKSPQLLIYAATSLADGVPSRFSGSGSGTKFSFKISSLQAEDFVSYYCQQLYSIPLTFGGGTKLEIK
modifications: left off: a dimerising Fc or GST
notes: fused protein synergibody SAITAng-2-3 × DTN6VEGFR-2-1, peptide at C-terminal of heavy chain
B2: Syn-Ang-VEGFR-12: fused protein synergibody SAITAng-2-3 × DTN8VEGFR-2-2, peptide at C-terminal of heavy chain (protein)
heavy (part 1 of 2): B1 heavy (part 1 of 2)
heavy (part 2 of 2): EAGKETCGYEWQYCPRP
light: B1 light
modifications: left off: a dimerising Fc or GST
notes: fused protein synergibody SAITAng-2-3 × DTN8VEGFR-2-2, peptide at C-terminal of heavy chain
B3: Syn-Ang-VEGFR-13: fused protein synergibody SAITAng-2-3 × DTN9VEGFR-2-3, peptide at C-terminal of heavy chain (protein)
heavy (part 1 of 2): B1 heavy (part 1 of 2)
heavy (part 2 of 2): EAGAYWCKAWGLSPCLVT
light: B1 light
modifications: left off: a dimerising Fc or GST
notes: fused protein synergibody SAITAng-2-3 × DTN9VEGFR-2-3, peptide at C-terminal of heavy chain
B4: Syn-Ang-VEGFR-14: fused protein synergibody SAITAng-2-3 × DTN10VEGFR-2-4, peptide at C-terminal of heavy chain (protein)
heavy (part 1 of 2): B1 heavy (part 1 of 2)
heavy (part 2 of 2): TGSGRMCDGSGPPTNCWFT
light: B1 light
modifications: left off: a dimerising Fc or GST
notes: fused protein synergibody SAITAng-2-3 × DTN10VEGFR-2-4, peptide at C-terminal of heavy chain
B5: Syn-Ang-VEGFR-15: fused protein synergibody SAITAng-2-3 × DTN11VEGFR-2-5, peptide at C-terminal of heavy chain (protein)
heavy (part 1 of 2): B1 heavy (part 1 of 2)
heavy (part 2 of 2): PGSQGYCHLNMRYQWICDSE
light: B1 light
modifications: left off: a dimerising Fc or GST
notes: fused protein synergibody SAITAng-2-3 × DTN11VEGFR-2-5, peptide at C-terminal of heavy chain
B6: Syn-Ang-VEGFR-16: fused protein synergibody SAITAng-2-4 × DTN6VEGFR-2-1, peptide at C-terminal of heavy chain (protein)
heavy (part 1 of 2): QVQLQQSGAELARPGASVKLSCKASGYTFTDYYINWAKQRTGQGLEWIGEIYPGSGDTYYNEKFKGKATLTADKSSSTAYMQLSSLTSEDSAVYFCARYGYKGVYFDYWGQSTTLTVSS
heavy (part 2 of 2): TGSDDLCYTFPCMHY
light: ENVLTQSPAIMAASLGQKVTMTCSASSSVSSSYLHWYQQKSGASPKPLIHRTSNLASGVPARFSGSGSGTSYSLTISSVEAEDDATYYCQQWSGYPFTFGAGTKLELK
modifications: left off: a dimerising Fc or GST
notes: fused protein synergibody SAITAng-2-4 × DTN6VEGFR-2-1, peptide at C-terminal of heavy chain
B7: Syn-Ang-VEGFR-17: fused protein synergibody SAITAng-2-4 × DTN8VEGFR-2-2, peptide at C-terminal of heavy chain (protein)
heavy (part 1 of 2): B6 heavy (part 1 of 2)
heavy (part 2 of 2): EAGKETCGYEWQYCPRP
light: B6 light
modifications: left off: a dimerising Fc or GST
notes: fused protein synergibody SAITAng-2-4 × DTN8VEGFR-2-2, peptide at C-terminal of heavy chain
B8: Syn-Ang-VEGFR-18: fused protein synergibody SAITAng-2-4 × DTN9VEGFR-2-3, peptide at C-terminal of heavy chain (protein)
heavy (part 1 of 2): B6 heavy (part 1 of 2)
heavy (part 2 of 2): EAGAYWCKAWGLSPCLVT
light: B6 light
modifications: left off: a dimerising Fc or GST
notes: fused protein synergibody SAITAng-2-4 × DTN9VEGFR-2-3, peptide at C-terminal of heavy chain
B9: Syn-Ang-VEGFR-19: fused protein synergibody SAITAng-2-4 × DTN10VEGFR-2-4, peptide at C-terminal of heavy chain (protein)
heavy (part 1 of 2): B6 heavy (part 1 of 2)
heavy (part 2 of 2): TGSGRMCDGSGPPTNCWFT
light: B6 light
modifications: left off: a dimerising Fc or GST
notes: fused protein synergibody SAITAng-2-4 × DTN10VEGFR-2-4, peptide at C-terminal of heavy chain
B10: Syn-Ang-VEGFR-20: fused protein synergibody SAITAng-2-4 × DTN11VEGFR-2-5, peptide at C-terminal of heavy chain (protein)
heavy (part 1 of 2): B6 heavy (part 1 of 2)
heavy (part 2 of 2): PGSQGYCHLNMRYQWICDSE
light: B6 light
modifications: left off: a dimerising Fc or GST
notes: fused protein synergibody SAITAng-2-4 × DTN11VEGFR-2-5, peptide at C-terminal of heavy chain

test system: HUVEC; assay: Cell-based functional assay, endothelial cell tube formation (BD BioCoat Angiogenesis System); parameters: species or system human; details: 5 μM fused protein synergibody, 18 hours; unrelated control group 12,227 ± 1,232
Description: Chimeric antibodies may be screened by functional assays such as cell-based assay for inhibition activity. In this example, BD BioCoat™ Angiogenesis System-Endothelial Cell Tube Formation (BD Biosciences) is used. BD Falcon 96-well Black/Clear plate coated with BD Matrigel Matrix that had been stored at −20° C. is slowly melted at 4° C. for 6 hours, and the mat cover of the plate is removed inside a sterile clean bench. Then it is left at 37° C. , 5% CO2 for 30 minutes so that the Matrigel™ Matrix would form polymers. Then it is made into a suspension by treating HUVEC, cultured on a petridish containing EGM-2 MV (Lonza) medium added with 10% fetal bovine serum to 70 to 80% confluence, with 0.5% Trypsin-EDTA (Gibco). Then it is resuspended in a culture medium containing 10% fetal bovine serum to a cell concentration of 4×10^5 cells/ml. At this time, 5 μM of each anti-Ang-2 chimeric antibodies expressed and purified in Section 5 above are also added and resuspended. Then 50 μl (about 2×10^4 cells) of each of the suspension is added to each well of the plate and incubated at 37° C. , 5% CO2 for 18 hours. Then the medium is removed and each well is washed twice with 100 μl of Hanks' balanced salt solution (HBSS, Invitrogen) ensuring that the tubes of the cells formed on BD Matrigel™ Matrix are not damaged. 50 μl of calcein AM (BD sciences) dissolved in HBSS at the concentration of 8 μg/ml is added to each well. The plate is then left to react at 37° C., 5% CO2 for 30 minutes and the calcein AM (BD sciences) solution is removed and washed twice with HBSS. Lastly, an image of the length of the entire tube of HUVEC formed on BD Matrigel™ Matrix is obtained on a fluorescent microscope and analyzed by using MetaMorph® software (Universal Imaging Corporation™, http://www.moleculardevices.com).
The peptides synthesized in Section 6A above are screened by cell-based functional assay for inhibition activity. The method described in Example 1, Section 7 is used, except that 5 μM synthesized peptides are added instead of anti-Ang-2 antibodies.
The fused protein synergibodies prepared in Section 1 above are screened using cell-based functional assay for inhibition activity. The method described in Example 1, Section 7 is used, except that, in this example, 5 μM of fused protein synergibodies are added instead of anti-Ang-2 antibodies.

Molecule	Length of entire tube of HUVEC (2 × 10^4 cells) (pixels)
B1	3,925 ± 675 pixels
B2	3,899 ± 923 pixels
B3	4,216 ± 747 pixels
B4	4,183 ± 698 pixels
B5	4,116 ± 815 pixels
B6	5,022 ± 809 pixels
B7	5,215 ± 714 pixels
B8	5,723 ± 736 pixels
B9	5,329 ± 822 pixels
B10	5,512 ± 699 pixels

Reference: patent publication US20110076723A1, “ANTIBODY-PEPTIDE FUSED SYNERGIBODY” (SAMSUNG ELECTRONICS CO., LTD., priority 2008, published 2011)
